Holding throughout (assay): enzyme inhibition kinetics
In assay [1] the target is plasmin (UniProt P00747).
Assay [2] deals with thrombin (UniProt P00734).
Assay [3] has as its target single-chain tissue-type plasminogen activator.

The source of these data is paper PMC179894.

wild type plasminogen activator inhibitor-1 (recombinant, baculovirus system), sequence (P05121 24-402): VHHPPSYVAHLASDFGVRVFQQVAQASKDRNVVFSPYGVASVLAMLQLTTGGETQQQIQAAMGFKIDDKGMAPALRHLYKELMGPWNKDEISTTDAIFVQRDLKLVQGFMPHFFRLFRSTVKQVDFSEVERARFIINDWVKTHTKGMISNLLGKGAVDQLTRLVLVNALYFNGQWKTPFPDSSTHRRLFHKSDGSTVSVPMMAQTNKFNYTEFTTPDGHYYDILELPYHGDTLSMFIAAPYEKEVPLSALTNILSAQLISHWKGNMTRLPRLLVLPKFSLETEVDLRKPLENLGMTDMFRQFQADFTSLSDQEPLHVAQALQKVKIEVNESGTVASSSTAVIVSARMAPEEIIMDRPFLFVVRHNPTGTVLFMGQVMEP

For the substance “wild type plasminogen activator inhibitor-1 (recombinant, baculovirus system) (from UniProt P05121 24-402) (natural protein)”, the values for the second-order rate constant of inhibition in assay [1], in assay [2] and in assay [3] were 31000 M⁻¹ s⁻¹, 720 M⁻¹ s⁻¹ and 2.11e+07 M⁻¹ s⁻¹, respectively.
